Data on one molecule can be found in publication PMC11374688, “Structural basis for transthiolation intermediates in the ubiquitin pathway” (Nature, 2024).

In the assay the target is T1, Schizosaccharomyces pombe Uba1 (lacking the first 12 amino acids) (S. pombe, UniProt O94609 13-1012, active site cysteine thiol linked to the dithioacetal carbon of the Ub(T) Gly76 surrogate).
T1 construct: Full-length Uba1 was used in the transthiolation assays; this molecule also stands for it in the functional rows; also called E1; source: E. coli BL21 (DE3) codon plus, purified (Ni-NTA, Ulp1, SEC, MonoQ)
T1 sequence (looked up): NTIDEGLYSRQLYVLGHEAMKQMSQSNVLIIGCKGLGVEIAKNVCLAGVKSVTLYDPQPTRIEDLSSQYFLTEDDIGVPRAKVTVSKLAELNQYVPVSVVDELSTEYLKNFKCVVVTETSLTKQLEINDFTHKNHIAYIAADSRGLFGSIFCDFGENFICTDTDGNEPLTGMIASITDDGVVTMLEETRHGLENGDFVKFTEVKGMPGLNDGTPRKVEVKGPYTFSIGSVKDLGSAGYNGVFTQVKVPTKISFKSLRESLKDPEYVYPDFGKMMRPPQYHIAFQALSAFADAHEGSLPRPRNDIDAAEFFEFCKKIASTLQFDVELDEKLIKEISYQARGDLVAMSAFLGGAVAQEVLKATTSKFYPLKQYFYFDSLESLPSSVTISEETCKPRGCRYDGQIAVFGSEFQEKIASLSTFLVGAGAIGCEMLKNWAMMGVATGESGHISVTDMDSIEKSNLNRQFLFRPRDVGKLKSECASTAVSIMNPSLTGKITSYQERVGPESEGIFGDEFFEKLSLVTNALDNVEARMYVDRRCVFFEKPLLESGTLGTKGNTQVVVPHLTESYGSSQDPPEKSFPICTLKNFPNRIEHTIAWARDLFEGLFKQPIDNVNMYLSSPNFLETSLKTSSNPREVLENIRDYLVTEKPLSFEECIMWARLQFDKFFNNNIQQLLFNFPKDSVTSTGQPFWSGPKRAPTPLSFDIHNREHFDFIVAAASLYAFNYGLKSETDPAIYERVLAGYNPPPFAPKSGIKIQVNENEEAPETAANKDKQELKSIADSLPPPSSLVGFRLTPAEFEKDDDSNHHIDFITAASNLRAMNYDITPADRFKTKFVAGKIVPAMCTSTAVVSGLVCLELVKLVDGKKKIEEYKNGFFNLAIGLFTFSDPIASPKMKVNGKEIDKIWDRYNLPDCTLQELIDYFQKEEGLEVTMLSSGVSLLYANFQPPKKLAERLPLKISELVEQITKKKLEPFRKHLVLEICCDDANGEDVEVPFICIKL
Put plainly: cryo-EM structure; E1–Ub(T)–E2 (Ub(T) Gly76 surrogate covalently linked to the E1 and E2 active site cysteines) at 3 mg/ml in Tris-HCl pH 7.2, 100 mM NaCl, preincubated 30 min on ice with 5 mM MgCl2, 1 mM ATP and ~0.8 molar equivalents of Ub; 0.05% CHAPSO; doubly and singly loaded complexes resolved from the same sample. The settings on record: both partners purified.

B1: S. pombe Ub without tags (natural protein)
chain: not shown
notes: In clusters 3 to 5 of the doubly loaded complex the C terminus of Ub(A) is adenylated (Ub(A)-AMP); also called Ub(A); native Ub; source: E. coli BL21 (DE3) codon plus, purified (as described previously, with additional SEC)
Turning to B1, the binding result is listed as “binds”.
